Changes are numbered by the printed parent chain. Numbers in names are those of the source. Blank lines part the entries; values can stand above or below the binder they belong to.
Key:
[1] = molecular target: T1, Human Hsf1 wild type (human), Q00613; experiment: SEC; details: remark: other sources report otherwise
T1 chain: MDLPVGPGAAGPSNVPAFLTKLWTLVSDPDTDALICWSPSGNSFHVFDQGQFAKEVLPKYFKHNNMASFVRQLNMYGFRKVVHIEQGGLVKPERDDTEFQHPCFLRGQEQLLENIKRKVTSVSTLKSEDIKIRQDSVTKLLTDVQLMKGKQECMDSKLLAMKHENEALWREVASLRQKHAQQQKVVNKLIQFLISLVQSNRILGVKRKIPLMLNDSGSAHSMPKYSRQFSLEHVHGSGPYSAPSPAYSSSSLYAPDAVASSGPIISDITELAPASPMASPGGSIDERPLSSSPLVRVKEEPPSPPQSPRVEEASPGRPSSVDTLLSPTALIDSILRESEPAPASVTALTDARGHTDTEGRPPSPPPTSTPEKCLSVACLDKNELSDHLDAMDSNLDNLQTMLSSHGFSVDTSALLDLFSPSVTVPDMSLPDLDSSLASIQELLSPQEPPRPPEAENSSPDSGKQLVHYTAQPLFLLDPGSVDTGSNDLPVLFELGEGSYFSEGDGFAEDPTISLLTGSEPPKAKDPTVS

SEC = molecular target: the molecule itself; experiment: SEC

stoichiometry N [1]: 3
B1: Human Hsf1 wild type, Q00613 1-529 (natural protein)
chain: T1 chain

B2: Hsf1-S303E,S307E (natural protein)
chain: T1 chain with S303E, S307E
stoichiometry N (SEC): 3

Source: paper doi:10.1101/2020.10.05.327064 (bioRxiv, 2020)
